Results reported in patent US12527846B2, “Immunodominant proteins and fragments in multiple sclerosis” (UNIVERSITÄT ZÜRICH, priority 2018, dated 2026).

Assays:
[1] = test system: CD45RA-depleted PBMCs of natalizumab-treated MS patients; test: RASGRP2 reactivity of peripheral blood-derived memory T cells (thymidine incorporation); format: cell-based, human; conditions: n=8 natalizumab-treated MS patients; peptide pools 10 μM or whole protein 0.3 μg/ml, day 7
Description: In order to test reactivity to RASGRP2 in peripheral blood-derived memory T cells, cryopreserved PBMCs (1×10^8 cells) of natalizumab-treated MS patients (NAT; n=8) were thawed and afterwards depleted for CD45RA-expressing cells using magnetic cell sorting (Miltenyi). 2×10^8 CD45RA-depleted PBMCs were seeded per well (10-15 replicate wells per condition) in X-Vivo medium and were either treated with vehicle (DMSO), with CD2/CD3/CD28 beads or pulsed with RASGRP2 peptide pools (final concentration of pool 10 μM) or whole purified RASGRP2 protein (Origene; 0.3 μg/ml). The 15mer-overlapping peptides covering the whole RASGRP2 protein (SEQ ID NO:s 38-98) were organized in 9 peptide pools with 7 peptides per pool covering the sequence of RASGRP2 from N- (pool 1) to C-terminus (pool 9). Thymidine incorporation assay was used to measure proliferation responses to RASGRP2. At day 7 the cells were pulsed with 1 μCi of methyl-3H-thymidine per well (Hartmann Analytic) and harvested after 15 h on a membrane (Tomtec). Incorporation was measured by p-scintillation counting (Wallac 1450, PerkinElmer). The results are shown as dots (mean±SEM). Stimulatory index (SI) was calculated as ratio of peptide or protein stimulation vs. vehicle control. SI values>2 were considered as positive (FIG. 10).

[2] = test system: CSF-infiltrating CD4+ T cells; test: Recognition of GDP-L-fucose synthase peptides by PHA-expanded CSF-infiltrating CD4+ T cells from 31 CIS/MS patients; format: cell-based, human; conditions: three-cluster k-means on patient scores
Description: In order to find out if specific recognition of GDP-L-fucose synthase occurs in CSF-infiltrating CD4+ T cells in patients with different forms of MS (the majority CIS and RRMS), a new protocol was developed to expand fresh CSF-infiltrating CD4+ T cells to high numbers in a single round to minimize variations in the original T cell repertoire. Resting PHA-expanded CSF-infiltrating CD4+ T cells, T cells that are also derived from the CNS compartment, from 31 CIS/MS patients were tested in quadruplicate with the 62 overlapping GDP-L-fucose synthase peptides presented by autologous irradiated PBMCs, as well as with the seven myelin peptides, CEF peptide pool and control beads. All stimulatory indices (Sls; except control beads) were pooled and SI values less than one were treated as having unit value. Cluster k-means analysis was performed to determine the optimal cut-off to differentiate responsive SI values from nonresponsive in this patient population. […] Subsequently, for each patient, all peptides having a median SI (of the quadruplicate wells) greater than 1.455 were identified as positive responses.
Next, patient scores were constructed by calculating the sum of each responsive peptide median SI, weighted by the number of total patients that responded to that peptide. […]
Proliferation was measured 72 h after stimulation by 3H-thymidine (Hartmann Analytic, Braunschweig, Germany) incorporation in a scintillation counter (Wallac 1450, PerkinElmer, Rodgau-Jurgesheim, Germany). The stimulatory index (SI) was calculated as follows: SI=Median (replicates cpm peptide)/Median (replicates cpm without peptide). Proliferation was also measured using a Click-iT™ EdU Flow Cytometry Assay Kit (APC, Molecular Probes, Invitrogen) following manufacturer's instructions. Cells were stained with the following antibodies anti-CD3 (PE-Cy-7, e-Bioscience, San Diego, CA) and anti-TRBV-21 (FITC, Beckman Coulter, Brea, CA) and analyzed by flow cytometry.

Molecule	donors responding (SI values>2 positive) [1]	patients characterized as high responders [2] [%]	patients characterized as moderate responders [2] [%]	patients characterized as nonresponders [2] [%]
RASGRP2: RASGRP2 peptide pools (15mer-overlapping peptides, SEQ ID NOs 38-98, 9 pools) or whole purified RASGRP2 protein (Origene) (protein, listed as Homo sapiens) AAAAARPAGGSARRWGRPGRCGLLAAGPKRVRSEPGGRLPERSLGPAHPAPAAMAGTLDLDKGCTVEELLRGCIEAFDDSGKVRDPQLVRMFLMMHPWYIPSSQLAAKLLHIYQQSRKDNSNSLQVKTCHLVRYWISAFPAEFDLNPELAEQIKELKALLDQEGNRRHSSLIDIDSVPTYKWKRQVTQRNPVGQKKRKMSLLFDHLEPMELAEHLTYLEYRSFCKILFQDYHSFVTHGCTVDNPVLERFISLFNSVSQWVQLMILSKPTAPQRALVITHFVHVAEKLLQLQNFNTLMAVVGGLSHSSISRLKETHSHVSPETIKLWEGLTELVTATGNYGNYRRRLAACVGFRFPILGVHLKDLVALQLALPDWLDPARTRLNGAKMKQLFSILEELAMVTSLRPPVQANPDLLSLLTVSLDQYQTEDELYQLSLQREPRSKSSPTSPTSCTPPPRPPVLEEWTSAAKPKLDQALVVEHIEKMVESVFRNFDVDGDGHISQEEFQIIRGNFPYLSAFGDLDQNQDGCISREEMVSYFLRSSSVLGGRMGFVHNFQESNSLRPVACRHCKALILGIYKQGLKCRACGVNCHKQCKDRLSVECRRRAQSVSLEGSAPSPSPMHSHHHRAFSFSLPRPGRRGSRPPEIREEEVQTVEDGVFDIHL	All 8 donors responded			
GDP L-fucose synthase (protein, listed as Homo sapiens, whole protein 1-321, GenBank AAH93061.1 or UniProtKB/Swiss-Prot Q13630) MGEPQGSMRILVTGGSGLVGKAIQKVVADGAGLPGEDWVFVSSKDADLTDTAQTRALFEKVQPTHVIHLAAMVGGLFRNIKYNLDFWRKNVHMNDNVLHSAFEVGARKVVSCLSTCIFPDKTTYPIDETMIHNGPPHNSNFGYSYAKRMIDVQNRAYFQQYGCTFTAVIPTNVFGPHDNFNIEDGHVLPGLIHKVHLAKSSGSALTVWGTGNPRRQFIYSLDLAQLFIWVLREYNEVEPIILSVGEEDEVSIKEAAEAVVEAMDFHGEVTFDTTKSDGQFKKTASNSKLRTYLPDFRFTPFKQAVKETCAWFTDNYEQARK		19.35	19.35	61.3
